target: T1, cTnI quality control product recombinant protein (human, UniProt P19429 2-210, limits assumed); assay: AMC sensor, antibody immobilised, cTnI in solution
T1 construct: treated as the same molecule; also called cTnI antigen; cardiac troponin I
Procedure: Operating process: it is equilibrated in Buffer 1 (PBST) for 60 s, the antibody is immobilized in an antibody solution for 300 s, incubated in Buffer 2 (PBST) for 180 s, bound in antigen solution for 420 s, dissociated in the Buffer 2 for 1200 s, 10 mM of GLY solution with pH 1.69 and Buffer 3 are used for sensor regeneration, and data is output. KD represents an equilibrium dissociation constant, namely the affinity; Kon represents a binding rate; and Kd is represents a dissociation rate.

T1 sequence (P19429 2-210 limits assumed): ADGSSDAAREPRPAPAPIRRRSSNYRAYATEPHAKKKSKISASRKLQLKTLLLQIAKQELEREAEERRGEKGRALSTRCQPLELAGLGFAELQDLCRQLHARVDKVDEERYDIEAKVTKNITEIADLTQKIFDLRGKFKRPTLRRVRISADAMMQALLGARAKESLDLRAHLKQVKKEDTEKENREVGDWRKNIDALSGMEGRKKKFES

Binder	Kd [nM]	koff [s⁻¹]	kon [M⁻¹ s⁻¹]
WT 1-51 (antibody, V domains shown, Heavy chain built as m63) VH: EVQLQQSGPELVKPGASVKMSCKASGYSFTIYVVHWVKQKPGQGLEWIGYIQPYIDGTRYNEKFKGKATLTVDKSSSTAFMELSSLTSEDSAVYYCARTGYGQYGLAWLAYWGQGTLVTVSA VL: QAVVIQESALTTSPGETVTLTCRSSSGAATTSQYANWVQEKPDHLFTGLIGGSNNRAPGVPARFSGSLIGDKAALTITGAQTEDEAIYFCAIVYSNHWVFGGGTKLTVLG	35.4	0.000527	14900
Mutation 1-2 (antibody, V domains shown, Built as m8) VH: EVQLQQSGPELVKPGASVKMSCKASGYTFTIYVIHWVKQKPGQGLEWIGYIQPYIDGTKYNEKFKGKATLTVDKSSSTAFMELSSLTSEDSAVYYCARSGYGGYGLAWLAYWGQGTLVTVSA VL: QAVVIQESALTTSPGETVTLTCRSSTGAVTTSQYANWVQEKPDHLFTGLIGGSNNRAPGVPARFSGSLIGDKAALTITGAQTEDEAIYFCALVYSNNWVFGGGTKLTVLG	7.64	0.00061	79900
Mutation 1-18 (antibody, V domains shown, Built as m8) VH: EVQLQQSGPELVKPGASVKMSCKASGYTFTIYVVHWVKQKPGQGLEWIGYINPYLDGTKYNEKFKGKATLTVDKSSSTAFMELSSLTSEDSAVYYCARSGYGQYGLAWLAYWGQGTLVTVSA VL: QAVVIQESALTTSPGETVTLTCRSSTGAVTTSQYANWVQEKPDHLFTGLIGGSNNRAPGVPARFSGSLIGDKAALTITGAQTEDEAIYFCALVYSNHWVFGGGTKLTVLG	9.31	0.000586	63000
Mutation 1-20 (antibody, V domains shown, Built as m8) VH: EVQLQQSGPELVKPGASVKMSCKASGYTFTIYVIHWVKQKPGQGLEWIGYIYPYIDGTKYNEKFKGKATLTVDKSSSTAFMELSSLTSEDSAVYYCARSGYGGYGLAWLAYWGQGTLVTVSA VL: QAVVIQESALTTSPGETVTLTCRSSTGAATTSQYANWVQEKPDHLFTGLIGGSNNRAPGVPARFSGSLIGDKAALTITGAQTEDEAIYFCALVYSNNWVFGGGTKLTVLG	7.74	0.000542	70000
Mutation 1-14 (antibody, V domains shown, Built as m8) VH: EVQLQQSGPELVKPGASVKMSCKASGYTFTIYVIHWVKQKPGQGLEWIGYINPYIDGTKYNEKFKGKATLTVDKSSSTAFMELSSLTSEDSAVYYCARSGYGGYGLAWLAYWGQGTLVTVSA VL: QAVVIQESALTTSPGETVTLTCRSSTGAVTTSQYANWVQEKPDHLFTGLIGGSNNRAPGVPARFSGSLIGDKAALTITGAQTEDEAIYFCALVYSNHWVFGGGTKLTVLG	0.866	2.21e-05	25500
Mutation 1-5 (antibody, V domains shown, Built as m8) VH: EVQLQQSGPELVKPGASVKMSCKASGYTFTLYVIHWVKQKPGQGLEWIGYIQPYIDGTKYNEKFKGKATLTVDKSSSTAFMELSSLTSEDSAVYYCARSGYGGYGLAWLAYWGQGTLVTVSA VL: QAVVIQESALTTSPGETVTLTCRSSTGAATTSNYANWVQEKPDHLFTGLIGGSQNRAPGVPARFSGSLIGDKAALTITGAQTEDEAIYFCALVYSNHWVFGGGTKLTVLG	1.2	4.4e-05	36800
Mutation 1-16 (antibody, V domains shown, Built as m8) VH: EVQLQQSGPELVKPGASVKMSCKASGYTFTLYVLHWVKQKPGQGLEWIGYINPYLDGTKYNEKFKGKATLTVDKSSSTAFMELSSLTSEDSAVYYCARSGYGNYGLAWLAYWGQGTLVTVSA VL: QAVVIQESALTTSPGETVTLTCRSSTGAATTSQYANWVQEKPDHLFTGLIGGSNNRAPGVPARFSGSLIGDKAALTITGAQTEDEAIYFCALVYSNHWVFGGGTKLTVLG	6.48	0.000222	34300
Mutation 1-9 (antibody, V domains shown, Built as m8) VH: EVQLQQSGPELVKPGASVKMSCKASGYTFTLYVVHWVKQKPGQGLEWIGYIQPYLDGTKYNEKFKGKATLTVDKSSSTAFMELSSLTSEDSAVYYCARSGYGQYGLAWLAYWGQGTLVTVSA VL: QAVVIQESALTTSPGETVTLTCRSSTGAATTSNYANWVQEKPDHLFTGLIGGSQNRAPGVPARFSGSLIGDKAALTITGAQTEDEAIYFCALVYSNHWVFGGGTKLTVLG	5.43	0.00024	44200
Mutation 1-4 (antibody, V domains shown, Built as m8) VH: EVQLQQSGPELVKPGASVKMSCKASGYTFTLYVLHWVKQKPGQGLEWIGYIQPYIDGTKYNEKFKGKATLTVDKSSSTAFMELSSLTSEDSAVYYCARSGYGNYGLAWLAYWGQGTLVTVSA VL: QAVVIQESALTTSPGETVTLTCRSSTGAATTSQYANWVQEKPDHLFTGLIGGSNNRAPGVPARFSGSLIGDKAALTITGAQTEDEAIYFCALVYSNNWVFGGGTKLTVLG	5.03	0.000232	46200
Mutation 1-7 (antibody, V domains shown, Built as m8) VH: EVQLQQSGPELVKPGASVKMSCKASGYTFTIYVLHWVKQKPGQGLEWIGYIQPYLDGTKYNEKFKGKATLTVDKSSSTAFMELSSLTSEDSAVYYCARSGYGNYGLAWLAYWGQGTLVTVSA VL: QAVVIQESALTTSPGETVTLTCRSSTGAVTTSNYANWVQEKPDHLFTGLIGGSQNRAPGVPARFSGSLIGDKAALTITGAQTEDEAIYFCALVYSNHWVFGGGTKLTVLG	2.77	0.000176	63600
Mutation 1-21 (antibody, V domains shown, Built as m8) VH: EVQLQQSGPELVKPGASVKMSCKASGYTFTLYVVHWVKQKPGQGLEWIGYIYPYIDGTKYNEKFKGKATLTVDKSSSTAFMELSSLTSEDSAVYYCARSGYGQYGLAWLAYWGQGTLVTVSA VL: QAVVIQESALTTSPGETVTLTCRSSTGAATTSNYANWVQEKPDHLFTGLIGGSQNRAPGVPARFSGSLIGDKAALTITGAQTEDEAIYFCALVYSNQWVFGGGTKLTVLG	1.47	5.71e-05	38800
Mutation 1-1 (antibody, V domains shown, built as m3) VH: EVQLQQSGPELVKPGASVKMSCKASGYTFTIYVLHWVKQKPGQGLEWIGYIQPYIDGTKYNEKFKGKATLTVDKSSSTAFMELSSLTSEDSAVYYCARSGYGNYGLAWLAYWGQGTLVTVSA VL: QAVVIQESALTTSPGETVTLTCRSSTGAATTSNYANWVQEKPDHLFTGLIGGSQNRAPGVPARFSGSLIGDKAALTITGAQTEDEAIYFCALVYSNQWVFGGGTKLTVLG	8.27	0.000712	86100
Mutation 1-8 (antibody, V domains shown, Built as m8) VH: EVQLQQSGPELVKPGASVKMSCKASGYTFTIYVIHWVKQKPGQGLEWIGYIQPYLDGTKYNEKFKGKATLTVDKSSSTAFMELSSLTSEDSAVYYCARSGYGGYGLAWLAYWGQGTLVTVSA VL: QAVVIQESALTTSPGETVTLTCRSSTGAATTSQYANWVQEKPDHLFTGLIGGSNNRAPGVPARFSGSLIGDKAALTITGAQTEDEAIYFCALVYSNQWVFGGGTKLTVLG	9.31	0.000244	26200

Now those with a lower Kd, led by results:

Kd [nM]	koff [s⁻¹]	kon [M⁻¹ s⁻¹]	Binder
0.106	2.86e-06	27000	Mutation 1-22 (antibody, V domains shown, Built as m8) VH: EVQLQQSGPELVKPGASVKMSCKASGYTFTLYVLHWVKQKPGQGLEWIGYIYPYIDGTKYNEKFKGKATLTVDKSSSTAFMELSSLTSEDSAVYYCARSGYGNYGLAWLAYWGQGTLVTVSA VL: QAVVIQESALTTSPGETVTLTCRSSTGAVTTSQYANWVQEKPDHLFTGLIGGSNNRAPGVPARFSGSLIGDKAALTITGAQTEDEAIYFCALVYSNNWVFGGGTKLTVLG
0.139	3.79e-06	27300	Mutation 1-13 (antibody, V domains shown, Built as m8) VH: EVQLQQSGPELVKPGASVKMSCKASGYTFTIYVLHWVKQKPGQGLEWIGYINPYIDGTKYNEKFKGKATLTVDKSSSTAFMELSSLTSEDSAVYYCARSGYGNYGLAWLAYWGQGTLVTVSA VL: QAVVIQESALTTSPGETVTLTCRSSTGAATTSNYANWVQEKPDHLFTGLIGGSQNRAPGVPARFSGSLIGDKAALTITGAQTEDEAIYFCALVYSNNWVFGGGTKLTVLG
0.399	9.54e-06	23900	Mutation 1-3 (antibody, V domains shown, Built as m8) VH: EVQLQQSGPELVKPGASVKMSCKASGYTFTLYVVHWVKQKPGQGLEWIGYIQPYIDGTKYNEKFKGKATLTVDKSSSTAFMELSSLTSEDSAVYYCARSGYGQYGLAWLAYWGQGTLVTVSA VL: QAVVIQESALTTSPGETVTLTCRSSTGAVTTSNYANWVQEKPDHLFTGLIGGSQNRAPGVPARFSGSLIGDKAALTITGAQTEDEAIYFCALVYSNQWVFGGGTKLTVLG
0.759	4.7e-05	61900	Mutation 1-15 (antibody, V domains shown, Built as m8) VH: EVQLQQSGPELVKPGASVKMSCKASGYTFTLYVVHWVKQKPGQGLEWIGYINPYIDGTKYNEKFKGKATLTVDKSSSTAFMELSSLTSEDSAVYYCARSGYGQYGLAWLAYWGQGTLVTVSA VL: QAVVIQESALTTSPGETVTLTCRSSTGAVTTSNYANWVQEKPDHLFTGLIGGSQNRAPGVPARFSGSLIGDKAALTITGAQTEDEAIYFCALVYSNNWVFGGGTKLTVLG
0.731	4.12e-05	56300	Mutation 1-10 (antibody, V domains shown, Built as m8) VH: EVQLQQSGPELVKPGASVKMSCKASGYTFTLYVLHWVKQKPGQGLEWIGYIQPYLDGTKYNEKFKGKATLTVDKSSSTAFMELSSLTSEDSAVYYCARSGYGNYGLAWLAYWGQGTLVTVSA VL: QAVVIQESALTTSPGETVTLTCRSSTGAVTTSQYANWVQEKPDHLFTGLIGGSNNRAPGVPARFSGSLIGDKAALTITGAQTEDEAIYFCALVYSNQWVFGGGTKLTVLG
0.697	5.34e-05	76600	Mutation 1-6 (antibody, V domains shown, Built as m8) VH: EVQLQQSGPELVKPGASVKMSCKASGYTFTIYVVHWVKQKPGQGLEWIGYIQPYLDGTKYNEKFKGKATLTVDKSSSTAFMELSSLTSEDSAVYYCARSGYGQYGLAWLAYWGQGTLVTVSA VL: QAVVIQESALTTSPGETVTLTCRSSTGAVTTSQYANWVQEKPDHLFTGLIGGSNNRAPGVPARFSGSLIGDKAALTITGAQTEDEAIYFCALVYSNNWVFGGGTKLTVLG
